Here are results for 1 molecule from patent US20090209615A1, “INHIBITORS OF MATRIX METALLOPROTEINASES TO TREAT NEUROLOGICAL DISORDERS” (priority 2004, published 2009).

This data set can be described thus: Stability of S-nitrosothiols (NAT conversion from DAN). Conditions: within 15 min of incubation.

B1: S-nitroso-MMP-9: S-nitrosylation product of SNOC-treated R-proMMP-9 (protein, UniProt P14780 20-707, looked up)
pro-form: APRQRQSTLVLFPGDLRTNLTDRQLAEEYLYRYGYTRVAEMRGESKSLGPALLLLQKQLSLPETGELDSATLKAMRTPRCGVPDLGRFQTFEGDLKWHHHNITYWIQNYSEDLPRAVIDDAFARAFALWSAVTPLTFTRVYSRDADIVIQFGVAEHGDGYPFDGKDGLLAHAFPPGPGIQGDAHFDDDELWSLGKGVVVPTRFGNADGAACHFPFIFEGRSYSACTTDGRSDGLPWCSTTANYDTDDRFGFCPSERLYTQDGNADGKPCQFPFIFQGQSYSACTTDGRSDGYRWCATTANYDRDKLFGFCPTRADSTVMGGNSAGELCVFPFTFLGKEYSTCTSEGRGDGRLWCATTSNFDSDKKWGFCPDQGYSLFLVAAHEFGHALGLDHSSVPEALMYPMYRFTEGPPLHKDDVNGIRHLYGPRPEPEPRPPTTTTPQPTAPPTVCPTGPPTVHPSERPTAGPTGPPSAGPTGPPTAGPSTATTVPLSPVDDACNVNIFDAIAEIGNQLYLFKDGKYWRFSEGRGSRPQGPFLIADKWPALPRKLDSVFEERLSKKLFFFSGRQVWVYTGASVLGPRRLDKLGLGADVAQVTGALRSGRGKMLLFSGRRLWRFDVKAQMVDPRSASEVDRMFPGVPLDTHDVFQYREKAYFCQDRFYWRVSSRSELNQVDQVGYVTYDILQCPED
modifications: pro-form S-nitrosylated
B1: the remained result is on record as “over 80%”.
